{"source": "patent US20200277405A1", "about": "“COMPOSITION FOR ANTIBODY-DRUG CONJUGATE DIRECTED AGAINST TUMOR-CELL ASSOCIATED POLYSIALIC ACID” (Cornell University, priority 2019, published 2020)", "molecules": {"B1": {"name": "mo735: well-known mouse-derived IgG2a monoclonal antibody 735 targeting polysialic acid (antibody, V domains shown)", "VH": "QIQLQQSGPELVRPGASVKISCKASGYTFTDYYIHWVKQRPGEGLEWIGWIYPGSGNTKYNEKFKGKATLTVDTSSSTAYMQLSSLTSEDSAVYFCARGGKFAMDYWGQGTSVTVSS", "VL": "DVVMTQTPLSLPVSLGDQASISCRSSQSLVHSNGNTYLYWYLQKPGQSPKPLIYRVSNRFSGVPDRFSGSGSGTDFTLKISRVEAEDLGVYFCFQGTHVPYTFGGGTRLEIK"}, "B2": {"name": "ch735: chimeric human IgG1 polySia-specific mAb made by swapping variable regions of mouse mAb 735 (antibody, V domains shown)", "VH": "B1 VH", "VL": "B1 VL"}}, "key": {"[1]": {"system": "polySia in formalin-fixed, paraffin-embedded (FFPE) human tissue sections of SCLC", "test": "IHC of FFPE tissue sections", "text": "FIGS. 6A-6D depict immunostaining of antibody ch735 to polySia-expressing cancer cells. […] Data are the geometric mean fluorescence intensity (MFI), with the values reported as the average of three replicates and the error represented as the standard deviation of the mean. […] Cells were stained with ch735, wheat germ agglutinin (WGA) to stain the cell membrane, and Hoescht to stain nuclei. Scale bars, 10 μm. […] Scale bars, 200 μm.\nThe avidin-biotin complex (ABC) immunoperoxidase method was performed essentially as previously described (Zhang et al., “Selection of Tumor Antigens as Targets for Immune Attack Using Immunohistochemistry: I. Focus on Gangliosides,” Int. J. Cancer 73:42-9 (1997), which is hereby incorporated by reference in its entirety). Briefly, the sections were quenched with 0.1% H2O2 in PBS for 15 min, blocked with avidin and biotin reagents (Vector, Burlingame, Calif.) for 10 min each, incubated in 10% serum from which the second antibody was raised and incubated with mAb 735 at 1 μg/ml for 1 h. This concentration was selected based on strong reactivity against known positive target cells and little or no background against stroma. The sections were subsequently incubated with biotinylated secondary antibodies for 30 min, and then incubated in ABC reagent per manufacturer's protocols (ABC Kit, Vector Laboratories, PK-6102) for 30 min. […]"}, "cultured neurons": {"system": "cultured neurons", "conditions": "unconjugated antibody; cited from earlier work"}, "cells and tissues": {"system": "cells and tissues", "conditions": "previously published IHC results (Zhang et al.); cited from earlier work"}, "polysialylated NCAM": {"system": "polysialylated NCAM", "test": "Glycoprotein array specificity profiling", "assay_type": "binding, chicken", "procedure": "(§1) FIGS. 2A-2D depict binding specificity and affinity of the ch735 antibody. […] ELISA signals (Abs370) were obtained with anti-human IgG secondary antibodies. […] Antibodies were assayed at 1 μg/mL and detected with anti-human IgG secondary antibodies. […] Antibodies were assayed at 10 μg/mL and detected with anti-mouse IgG secondary antibodies.\nas §1, with “3A-3D” for “2A-2D”, “mo735” for “the ch735”, “anti-mouse” for “anti-human”\nSpecificity of mo735 and ch735 was determined using printed glycan arrays 5.3 and 5.4 at the CFG. Both antibodies were analyzed at 10 μg/mL with 5 μg/mL of anti-mouse or anti-human Alexa-Fluor 647 (AF647)-conjugated secondary, respectively. Specificity of mo735 (1 μg/mL) and ch735 (10 μg/mL) was also assessed on a custom glycoprotein array that contained ˜40-50 glycoproteins including chicken brain NCAM and endoN-treated chicken brain NCAM."}, "[2]": {"system": "polySia-negative MCF7 cells", "test": "Internalization assay, MCF7", "assay_type": "cell-based, human", "conditions": "after 1 h", "procedure": "FIGS. 10A-10E depict internalization of ch735 into polySia-positive cancer cells. […] Nuclei were stained by Hoescht (blue). Scale bar, 10 Fluorescence intensity was measured across the dotted line and normalized to the maximum value in each channel. Arrows indicate regions of colocalization. […] Nuclei were stained by Hoescht. Scale bar, 10 Fluorescence intensity was measured across the dotted line and normalized to the maximum value in each channel. Arrows indicate regions of colocalization. The inset show only the ch735 and DNA channels of the boxed region. […] Scale bar, 10 Fluorescence intensity was measured across the dotted white line and normalized to the maximum value in each channel. […]\nTo calculate percent internalization, pre-chilled cells were incubated with 50 nM ch735 on ice for 1 h and then washed to remove unbound antibodies. […] Cells were fixed in 2% paraformaldehyde for 20 min and then stained with AF488-labeled antibody against human IgG and analyzed by flow cytometry and FlowJo software. Receptor-antibody complex internalization was calculated using the geometric mean as percent fluorescent intensity loss at 37° C. relative to that on ice. For each sample, the geometric mean fluorescence intensity (MFI) of 10,000 cells was measured in triplicate."}}}
{"molecule": "B1", "values": [{"measurement": "IHC staining of polySia", "setting": "[1]; FFPE human SCLC tissue sections", "value": "strong staining"}, {"measurement": "IHC staining of polySia", "setting": "[1]; adjacent normal tissue, except bronchial epithelial cells and alveolar macrophages", "value": "little to no staining"}, {"measurement": "complement-dependent cytotoxicity (CDC)", "setting": "cultured neurons", "value": "only limited complement-dependent cytotoxicity (CDC)"}, {"measurement": "IHC reactivity with cells and tissues", "setting": "cells and tissues", "value": "reacted with only a limited number of cells and tissues"}]}
{"molecule": "B2", "values": [{"measurement": "glycoprotein array binding", "setting": "polysialylated NCAM; array of ~50 glycoproteins", "value": "strong preference for polysialylated NCAM"}, {"measurement": "signal towards any other glycomolecules", "setting": "polysialylated NCAM; microarrays, including endoN-treated NCAM spotted on the glycoprotein array", "value": "no significant signal"}, {"measurement": "antibody internalization", "setting": "[2]", "value": "no internalization"}]}
